Experimental data: PMC10540216, “Activity Guided Azide-methyllysine Photo-trapping for Substrate Profiling of Lysine Demethylases” (Journal of the American Chemical Society, 2023)

B1: SYG_HUMAN (protein, UniProt P41250 37-739, looked up)
Glycine--tRNA ligase: SAASCPPISLPAAASRSSMDGAGAEEVLAPLRLAVRQQGDLVRKLKEDKAPQVDVDKAVAELKARKRVLEAKELALQPKDDIVDRAKMEDTLKRRFFYDQAFAIYGGVSGLYDFGPVGCALKNNIIQTWRQHFIQEEQILEIDCTMLTPEPVLKTSGHVDKFADFMVKDVKNGECFRADHLLKAHLQKLMSDKKCSVEKKSEMESVLAQLDNYGQQELADLFVNYNVKSPITGNDLSPPVSFNLMFKTFIGPGGNMPGYLRPETAQGIFLNFKRLLEFNQGKLPFAAAQIGNSFRNEISPRSGLIRVREFTMAEIEHFVDPSEKDHPKFQNVADLHLYLYSAKAQVSGQSARKMRLGDAVEQGVINNTVLGYFIGRIYLYLTKVGISPDKLRFRQHMENEMAHYACDCWDAESKTSYGWIEIVGCADRSCYDLSCHARATKVPLVAEKPLKEPKTVNVVQFEPSKGAIGKAYKKDAKLVMEYLAICDECYITEMEMLLNEKGEFTIETEGKTFQLTKDMINVKRFQKTLYVEEVVPNVIEPSFGLGRIMYTVFEHTFHVREGDEQRTFFSFPAVVAPFKCSVLPLSQNQEFMPFVKELSEALTRHGVSHKVDDSSGSIGRRYARTDEIGVAFGVTIDFDTVNKTPHTATLRDRDSMRQIRAEISELPSIVQDLANGNITWADVEARYPLFEGQETGKKETIEE
B2: DC1I2_HUMAN (protein, UniProt Q13409 2-638, looked up)
Cytoplasmic dynein 1 …: SDKSELKAELERKKQRLAQIREEKKRKEEERKKKETDQKKEAVAPVQEESDLEKKRREAEALLQSMGLTPESPIVFSEYWVPPPMSPSSKSVSTPSEAGSQDSGDGAVGSRTLHWDTDPSVLQLHSDSDLGRGPIKLGMAKITQVDFPPREIVTYTKETQTPVMAQPKEDEEEDDDVVAPKPPIEPEEEKTLKKDEENDSKAPPHELTEEEKQQILHSEEFLSFFDHSTRIVERALSEQINIFFDYSGRDLEDKEGEIQAGAKLSLNRQFFDERWSKHRVVSCLDWSSQYPELLVASYNNNEDAPHEPDGVALVWNMKYKKTTPEYVFHCQSAVMSATFAKFHPNLVVGGTYSGQIVLWDNRSNKRTPVQRTPLSAAAHTHPVYCVNVVGTQNAHNLISISTDGKICSWSLDMLSHPQDSMELVHKQSKAVAVTSMSFPVGDVNNFVVGSEEGSVYTACRHGSKAGISEMFEGHQGPITGIHCHAAVGAVDFSHLFVTSSFDWTVKLWTTKNNKPLYSFEDNADYVYDVMWSPTHPALFACVDGMGRLDLWNLNNDTEVPTASISVEGNPALNRVRWTHSGREIAVGDSEGQIVIYDVGEQIAVPRNDEWARFGRTLAEINANRADAEEEAATRIPA
B3: LMNB2_HUMAN (protein, UniProt Q03252 1-617, looked up)
Lamin-B2: MSPPSPGRRREQRRPRAAATMATPLPGRAGGPATPLSPTRLSRLQEKEELRELNDRLAHYIDRVRALELENDRLLLKISEKEEVTTREVSGIKALYESELADARRVLDETARERARLQIEIGKLRAELDEVNKSAKKREGELTVAQGRVKDLESLFHRSEVELAAALSDKRGLESDVAELRAQLAKAEDGHAVAKKQLEKETLMRVDLENRCQSLQEELDFRKSVFEEEVRETRRRHERRLVEVDSSRQQEYDFKMAQALEELRSQHDEQVRLYKLELEQTYQAKLDSAKLSSDQNDKAASAAREELKEARMRLESLSYQLSGLQKQASAAEDRIRELEEAMAGERDKFRKMLDAKEQEMTEMRDVMQQQLAEYQELLDVKLALDMEINAYRKLLEGEEERLKLSPSPSSRVTVSRATSSSSGSLSATGRLGRSKRKRLEVEEPLGSGPSVLGTGTGGSGGFHLAQQASASGSVSIEEIDLEGKFVQLKNNSDKDQSLGNWRIKRQVLEGEEIAYKFTPKYILRAGQMVTVWAAGAGVAHSPPSTLVWKGQSSWGTGESFRTVLVNADGEEVAMRTVKKSSVMRENENGEEEEEEAEFGEEDLFHQQGDPRTTSRGC
B4: PNPT1_HUMAN (protein, UniProt Q8TCS8 46-783, looked up)
Polyribonucleotide …: AVAVDLGNRKLEISSGKLARFADGSAVVQSGDTAVMVTAVSKTKPSPSQFMPLVVDYRQKAAAAGRIPTNYLRREIGTSDKEILTSRIIDRSIRPLFPAGYFYDTQVLCNLLAVDGVNEPDVLAINGASVALSLSDIPWNGPVGAVRIGIIDGEYVVNPTRKEMSSSTLNLVVAGAPKSQIVMLEASAENILQQDFCHAIKVGVKYTQQIIQGIQQLVKETGVTKRTPQKLFTPSPEIVKYTHKLAMERLYAVFTDYEHDKVSRDEAVNKIRLDTEEQLKEKFPEADPYEIIESFNVVAKEVFRSIVLNEYKRCDGRDLTSLRNVSCEVDMFKTLHGSALFQRGQTQVLCTVTFDSLESGIKSDQVITAINGIKDKNFMLHYEFPPYATNEIGKVTGLNRRELGHGALAEKALYPVIPRDFPFTIRVTSEVLESNGSSSMASACGGSLALMDSGVPISSAVAGVAIGLVTKTDPEKGEIEDYRLLTDILGIEDYNGDMDFKIAGTNKGITALQADIKLPGIPIKIVMEAIQQASVAKKEILQIMNKTISKPRASRKENGPVVETVQVPLSKRAKFVGPGGYNLKKLQAETGVTISQVDEETFSVFAPTPSAMHEARDFITEICKDDQEQQLEFGAVYTATITEIRDTGVMVKLYPNMTAVLLHNTQLDQRKIKHPTALGLEVGQEIQVKYFGRDPADGRMRLSRKVLQSPATTVVRTLNDRSSIVMGEPISQSSSNSQ
B5: HXK1_HUMAN (protein, UniProt P19367 1-917, looked up)
Hexokinase-1: MIAAQLLAYYFTELKDDQVKKIDKYLYAMRLSDETLIDIMTRFRKEMKNGLSRDFNPTATVKMLPTFVRSIPDGSEKGDFIALDLGGSSFRILRVQVNHEKNQNVHMESEVYDTPENIVHGSGSQLFDHVAECLGDFMEKRKIKDKKLPVGFTFSFPCQQSKIDEAILITWTKRFKASGVEGADVVKLLNKAIKKRGDYDANIVAVVNDTVGTMMTCGYDDQHCEVGLIIGTGTNACYMEELRHIDLVEGDEGRMCINTEWGAFGDDGSLEDIRTEFDREIDRGSLNPGKQLFEKMVSGMYLGELVRLILVKMAKEGLLFEGRITPELLTRGKFNTSDVSAIEKNKEGLHNAKEILTRLGVEPSDDDCVSVQHVCTIVSFRSANLVAATLGAILNRLRDNKGTPRLRTTVGVDGSLYKTHPQYSRRFHKTLRRLVPDSDVRFLLSESGSGKGAAMVTAVAYRLAEQHRQIEETLAHFHLTKDMLLEVKKRMRAEMELGLRKQTHNNAVVKMLPSFVRRTPDGTENGDFLALDLGGTNFRVLLVKIRSGKKRTVEMHNKIYAIPIEIMQGTGEELFDHIVSCISDFLDYMGIKGPRMPLGFTFSFPCQQTSLDAGILITWTKGFKATDCVGHDVVTLLRDAIKRREEFDLDVVAVVNDTVGTMMTCAYEEPTCEVGLIVGTGSNACYMEEMKNVEMVEGDQGQMCINMEWGAFGDNGCLDDIRTHYDRLVDEYSLNAGKQRYEKMISGMYLGEIVRNILIDFTKKGFLFRGQISETLKTRGIFETKFLSQIESDRLALLQVRAILQQLGLNSTCDDSILVKTVCGVVSRRAAQLCGAGMAAVVDKIRENRGLDRLNVTVGVDGTLYKLHPHFSRIMHQTVKELSPKCNVSFLLSEDGSGKGAALITAVGVRLRTEASS
B6: ILF3_HUMAN (protein, UniProt Q12906 1-894, looked up)
Interleukin enhancer-binding …: MRPMRIFVNDDRHVMAKHSSVYPTQEELEAVQNMVSHTERALKAVSDWIDEQEKGSSEQAESDNMDVPPEDDSKEGAGEQKTEHMTRTLRGVMRVGLVAKGLLLKGDLDLELVLLCKEKPTTALLDKVADNLAIQLAAVTEDKYEILQSVDDAAIVIKNTKEPPLSLTIHLTSPVVREEMEKVLAGETLSVNDPPDVLDRQKCLAALASLRHAKWFQARANGLKSCVIVIRVLRDLCTRVPTWGPLRGWPLELLCEKSIGTANRPMGAGEALRRVLECLASGIVMPDGSGIYDPCEKEATDAIGHLDRQQREDITQSAQHALRLAAFGQLHKVLGMDPLPSKMPKKPKNENPVDYTVQIPPSTTYAITPMKRPMEEDGEEKSPSKKKKKIQKKEEKAEPPQAMNALMRLNQLKPGLQYKLVSQTGPVHAPIFTMSVEVDGNSFEASGPSKKTAKLHVAVKVLQDMGLPTGAEGRDSSKGEDSAEETEAKPAVVAPAPVVEAVSTPSAAFPSDATAEQGPILTKHGKNPVMELNEKRRGLKYELISETGGSHDKRFVMEVEVDGQKFQGAGSNKKVAKAYAALAALEKLFPDTPLALDANKKKRAPVPVRGGPKFAAKPHNPGFGMGGPMHNEVPPPPNLRGRGRGGSIRGRGRGRGFGGANHGGYMNAGAGYGSYGYGGNSATAGYSQFYSNGGHSGNASGGGGGGGGGSSGYGSYYQGDNYNSPVPPKHAGKKQPHGGQQKPSYGSGYQSHQGQQQSYNQSPYSNYGPPQGKQKGYNHGQGSYSYSNSYNSPGGGGGSDYNYESKFNYSGSGGRSGGNSYGSGGASYNPGSHGGYGGGSGGGSSYQGKQGGYSQSNYNSPGSGQNYSGPPSSYQSSQGGYGRNADHSMNYQYR
B7: NU107_HUMAN (protein, UniProt P57740 1-925, looked up)
Nuclear pore complex protein …: MDRSGFGEISSPVIREAEVTRTARKQSAQKRVLLQASQDENFGNTTPRNQVIPRTPSSFRQPFTPTSRSLLRQPDISCILGTGGKSPRLTQSSGFFGNLSMVTNLDDSNWAAAFSSQRSGLFTNTEPHSITEDVTISAVMLREDDPGEAASMSMFSDFLQSFLKHSSSTVFDLVEEYENICGSQVNILSKIVSRATPGLQKFSKTASMLWLLQQEMVTWRLLASLYRDRIQSALEEESVFAVTAVNASEKTVVEALFQRDSLVRQSQLVVDWLESIAKDEIGEFSDNIEFYAKSVYWENTLHTLKQRQLTSYVGSVRPLVTELDPDAPIRQKMPLDDLDREDEVRLLKYLFTLIRAGMTEEAQRLCKRCGQAWRAATLEGWKLYHDPNVNGGTELEPVEGNPYRRIWKISCWRMAEDELFNRYERAIYAALSGNLKQLLPVCDTWEDTVWAYFRVMVDSLVEQEIQTSVATLDETEELPREYLGANWTLEKVFEELQATDKKRVLEENQEHYHIVQKFLILGDIDGLMDEFSKWLSKSRNNLPGHLLRFMTHLILFFRTLGLQTKEEVSIEVLKTYIQLLIREKHTNLIAFYTCHLPQDLAVAQYALFLESVTEFEQRHHCLELAKEADLDVATITKTVVENIRKKDNGEFSHHDLAPALDTGTTEEDRLKIDVIDWLVFDPAQRAEALKQGNAIMRKFLASKKHEAAKEVFVKIPQDSIAEIYNQCEEQGMESPLPAEDDNAIREHLCIRAYLEAHETFNEWFKHMNSVPQKPALIPQPTFTEKVAHEHKEKKYEMDFGIWKGHLDALTADVKEKMYNVLLFVDGGWMVDVREDAKEDHERTHQMVLLRKLCLPMLCFLLHTILHSTGQYQECLQLADMVSSERHKLYLVFSKEELRKLLQKLRESSLMLLDQGLDPLGYEIQL

What follows are molecules tested on KDM4A-I71AzF (assay: CASI: photo-crosslinking with HEK293T cell extracts, StrepTactin enrichment and LC-MS/MS proteomics). Settings: sheet "Final results but with 0.01".
Type: binding, human
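Further: lysates from HEK293T cells pretreated with a KDM4 inhibitor to raise proteome methylation, affinity-purified after ±UV, gel-resolved, trypsin-digested, with exclusive unique peptides per protein averaged per condition.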

Molecule	Fold change (+UV/-UV)
B1	1
B2	1
B3	0.5
B4	0
B5	1
B6	0.5
B7	2
